Measurements taken from PMC9482650, “Quantitative fragmentomics allow affinity mapping of interactomes” (Nature Communications, 2022).

T1: PDZD4, Q76G19
T1 sequence (Q76G19 125-224, limits assumed, looked up): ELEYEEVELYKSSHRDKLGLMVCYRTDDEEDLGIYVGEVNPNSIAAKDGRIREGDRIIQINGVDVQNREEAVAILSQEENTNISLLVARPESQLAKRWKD

T2: LNX2_4, Q8N448
T2 sequence (Q8N448 595-690, limits assumed, looked up): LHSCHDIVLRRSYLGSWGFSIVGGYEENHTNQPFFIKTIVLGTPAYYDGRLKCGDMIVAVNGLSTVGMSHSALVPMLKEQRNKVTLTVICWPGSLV

T3: MPDZ_13, O75970
T3 sequence (O75970 1982-2070, limits assumed, looked up): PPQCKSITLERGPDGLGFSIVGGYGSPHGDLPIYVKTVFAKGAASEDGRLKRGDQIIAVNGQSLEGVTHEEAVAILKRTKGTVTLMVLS

T4: SYNPO2L, Q9H987
T4 sequence (Q9H987 1-98, limits assumed, looked up): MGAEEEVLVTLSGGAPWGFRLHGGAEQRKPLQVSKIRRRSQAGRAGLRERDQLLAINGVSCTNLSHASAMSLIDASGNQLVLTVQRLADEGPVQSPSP

T5: MPP5, Q8N3R9
T5 sequence (Q8N3R9 251-346, limits assumed, looked up): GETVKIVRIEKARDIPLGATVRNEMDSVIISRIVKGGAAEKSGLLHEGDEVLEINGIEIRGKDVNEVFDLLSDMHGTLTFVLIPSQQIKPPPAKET

T6: MPDZ_6, O75970
T6 sequence (O75970 1003-1099, limits assumed, looked up): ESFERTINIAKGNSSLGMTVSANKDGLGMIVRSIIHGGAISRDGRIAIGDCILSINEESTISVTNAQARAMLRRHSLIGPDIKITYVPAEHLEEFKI

T7: PDZD7_1, Q9H5P4
T7 sequence (Q9H5P4 81-178, limits assumed, looked up): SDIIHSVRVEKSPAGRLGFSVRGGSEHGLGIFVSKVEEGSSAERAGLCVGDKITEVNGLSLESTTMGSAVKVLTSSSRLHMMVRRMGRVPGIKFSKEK

T8: PARD6G, Q9BYG4
T8 sequence (Q9BYG4 153-261, limits assumed, looked up): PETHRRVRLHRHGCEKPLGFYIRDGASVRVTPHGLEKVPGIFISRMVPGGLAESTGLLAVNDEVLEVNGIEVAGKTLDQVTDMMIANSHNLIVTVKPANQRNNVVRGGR

T9: MPDZ_3, O75970
T9 sequence (O75970 372-473, limits assumed, looked up): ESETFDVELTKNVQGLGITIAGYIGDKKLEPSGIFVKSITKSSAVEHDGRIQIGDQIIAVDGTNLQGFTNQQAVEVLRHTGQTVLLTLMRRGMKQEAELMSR


Legend:
Experiment in all cases: holdup assay
Set-up in all cases: key: below the threshold = too weak to quantify, mostly under pKd 3.1 to 4
Conditions in all cases: plain residues with an end cap or a label only (N-terminal biotin on a linker: ttds)
[1] = target: Q6ZWJ1
[2] = target: T1, PDZD4, Q76G19
[3] = target: DVL2, O14641
[4] = target: Q9UDY2
[5] = target: Q12923
[6] = target: T2, LNX2_4, Q8N448
[7] = target: PARD3B_2, Q8TEW8
[8] = target: NHERF4_3, Q86UT5
[9] = target: T3, MPDZ_13, O75970
[10] = target: RGS3, P49796-9
[11] = target: PDZRN4_2, Q6ZMN7
[12] = target: T4, SYNPO2L, Q9H987
[13] = target: SDCBP_1, O00560
[14] = target: T5, MPP5, Q8N3R9
[15] = target: T6, MPDZ_6, O75970
[16] = target: Q9NPB6
[17] = target: T7, PDZD7_1, Q9H5P4
[18] = target: T8, PARD6G, Q9BYG4
[19] = target: T9, MPDZ_3, O75970
[20] = target: MAGI3_4, Q5TCQ9
[21] = target: O43166
[22] = target: Q9C0E4
[23] = target: Q96JY6
[24] = target: CARD14, Q9BXL6
[25] = target: Q13368
[26] = target: O00560
[27] = target: Q96HC4
[28] = target: TJP1_1, Q07157
Chain of TJP1_1, Q07157 (Q07157 18-120): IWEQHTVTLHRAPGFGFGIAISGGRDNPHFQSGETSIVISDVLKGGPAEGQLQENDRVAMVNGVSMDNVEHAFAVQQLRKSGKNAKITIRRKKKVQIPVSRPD

Chain of RGS3, P49796-9 (P49796 other isoform, or with tags, fused parts or gaps): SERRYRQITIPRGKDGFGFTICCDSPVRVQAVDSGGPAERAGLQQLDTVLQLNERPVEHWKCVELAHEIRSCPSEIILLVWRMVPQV
Chain of MAGI3_4, Q5TCQ9 (Q5TCQ9 716-815): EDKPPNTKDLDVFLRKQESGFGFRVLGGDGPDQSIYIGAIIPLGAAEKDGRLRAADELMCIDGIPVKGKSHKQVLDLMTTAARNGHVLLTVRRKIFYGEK
Chain of SDCBP_1, O00560 (O00560 111-198): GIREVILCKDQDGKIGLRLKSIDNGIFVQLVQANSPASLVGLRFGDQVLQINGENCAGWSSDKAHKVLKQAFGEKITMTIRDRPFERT
Chain of CARD14, Q9BXL6 (Q9BXL6 558-663): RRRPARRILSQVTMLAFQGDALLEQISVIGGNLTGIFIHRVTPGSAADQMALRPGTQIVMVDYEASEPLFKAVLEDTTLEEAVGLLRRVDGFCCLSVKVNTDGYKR
Chain of NHERF4_3, Q86UT5 (Q86UT5 325-412): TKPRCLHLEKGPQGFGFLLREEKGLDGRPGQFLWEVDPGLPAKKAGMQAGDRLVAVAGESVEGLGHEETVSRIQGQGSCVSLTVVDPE
Chain of PDZRN4_2, Q6ZMN7 (Q6ZMN7 389-498): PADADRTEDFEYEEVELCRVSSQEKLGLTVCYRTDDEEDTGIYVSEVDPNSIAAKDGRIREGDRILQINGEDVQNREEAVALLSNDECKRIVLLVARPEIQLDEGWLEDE
Chain of PARD3B_2, Q8TEW8 (Q8TEW8 376-471): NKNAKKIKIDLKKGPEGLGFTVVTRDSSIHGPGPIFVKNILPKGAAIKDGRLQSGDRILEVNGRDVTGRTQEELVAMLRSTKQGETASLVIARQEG
Chain of DVL2, O14641 (O14641 260-359): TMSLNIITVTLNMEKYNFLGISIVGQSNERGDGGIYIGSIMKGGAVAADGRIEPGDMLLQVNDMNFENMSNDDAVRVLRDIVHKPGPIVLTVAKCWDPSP

Binder | pKd [1] | pKd [2] | pKd [3] | pKd [4] | pKd [5] | pKd [6] | pKd [7] | pKd [8] | pKd [9] | pKd [10] | pKd [11] | pKd [12] | pKd [13] | pKd [14] | pKd [15] | pKd [16] | pKd [17] | pKd [18] | pKd [19] | pKd [20] | other results
CLDTSRETDL [KCNA5, P22460] | below the threshold | below the threshold | below the threshold | below the threshold | below the threshold | below the threshold | below the threshold | below the threshold | below the threshold | below the threshold | below the threshold | below the threshold | below the threshold | below the threshold | below the threshold | below the threshold | below the threshold | below the threshold | below the threshold | below the threshold | pKd [21]: below the threshold; pKd [22]: below the threshold; pKd [23]: below the threshold; pKd [24]: below the threshold; pKd [25]: below the threshold; pKd [26]: below the threshold; pKd [27]: below the threshold; pKd [28]: below the threshold
IQREDQETAV [DGKZ, Q13574] | below the threshold | below the threshold | 4.5 | below the threshold | below the threshold | below the threshold | below the threshold | below the threshold | below the threshold | below the threshold | below the threshold | below the threshold | below the threshold | below the threshold | below the threshold | below the threshold | below the threshold | below the threshold | below the threshold | below the threshold | pKd [21]: below the threshold; pKd [22]: below the threshold; pKd [23]: below the threshold; pKd [24]: below the threshold; pKd [25]: below the threshold; pKd [26]: below the threshold; pKd [27]: below the threshold; pKd [28]: below the threshold
HRTCYLVTQL [ASIC3, Q9UHC3] | below the threshold | below the threshold | below the threshold | below the threshold | below the threshold | below the threshold | below the threshold | 4.13 | below the threshold | 4.32 | below the threshold | below the threshold | below the threshold | below the threshold | below the threshold | below the threshold | below the threshold | below the threshold | 4.04 | below the threshold | pKd [21]: below the threshold; pKd [22]: below the threshold; pKd [23]: below the threshold; pKd [24]: below the threshold; pKd [25]: below the threshold; pKd [26]: below the threshold; pKd [27]: below the threshold; pKd [28]: 4.17
